We go through three molecules from patent publication US20030100089A1.

The target in one series is Cathepsin D. The series is described as follows: cell-based or functional assay.
In another series the target is T1, Cathepsin G.
T1 sequence (P08311 21-244, species assumed, looked up): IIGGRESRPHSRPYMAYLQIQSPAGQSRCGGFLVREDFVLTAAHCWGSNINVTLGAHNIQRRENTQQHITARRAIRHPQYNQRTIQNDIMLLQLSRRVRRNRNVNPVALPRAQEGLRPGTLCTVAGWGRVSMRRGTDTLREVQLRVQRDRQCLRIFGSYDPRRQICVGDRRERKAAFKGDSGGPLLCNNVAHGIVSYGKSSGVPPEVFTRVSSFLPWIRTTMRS
The series is described as follows: cell-based or functional assay.

A further series has as its target Chymotrypsin. The series is described as follows: cell-based or functional assay.
Another series addresses T2, MMP-7.
T2 sequence (P09237 95-267, species assumed, looked up): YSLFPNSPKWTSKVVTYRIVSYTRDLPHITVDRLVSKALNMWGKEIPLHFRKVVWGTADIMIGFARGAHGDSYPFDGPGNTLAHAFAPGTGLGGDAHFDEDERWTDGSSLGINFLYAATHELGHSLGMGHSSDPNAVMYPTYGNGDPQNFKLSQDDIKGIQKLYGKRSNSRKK
The series is described as follows: cell-based or functional assay.

Another series has as its target Plasmin. The series is described as follows: cell-based or functional assay.
Another series concerns the target Trypsin. The series is described as follows: cell-based or functional assay.
For series [1], the target named is porcine pancreatic elastase (PPE) (porcine) (UniProt P00772). The series is described as follows: cell-based or functional assay.
Sequence of UniProt P00772 (P00772 27-266): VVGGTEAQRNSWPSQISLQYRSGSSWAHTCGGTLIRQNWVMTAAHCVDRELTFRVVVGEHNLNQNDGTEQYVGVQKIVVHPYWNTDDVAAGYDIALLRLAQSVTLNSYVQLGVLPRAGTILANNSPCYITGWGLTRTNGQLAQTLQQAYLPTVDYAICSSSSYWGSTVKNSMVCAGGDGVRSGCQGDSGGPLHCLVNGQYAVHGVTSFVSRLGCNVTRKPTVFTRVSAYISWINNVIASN
For another series, the target named is MMP-2. The series is described as follows: cell-based or functional assay.
Another series concerns the target Papaine. The series is described as follows: cell-based or functional assay.
The target of the next series is Thrombin. The series is described as follows: cell-based or functional assay.
Series [2] addresses human leukocyte elastase (HLE) (human) (UniProt P08246). The series is described as follows: cell-based or functional assay.
The target of series [3] is p54 protein (glycoprotein of about 54 kDa isolated from shark cartilage, serine protease inhibitor).

Consider Alpha 1-antitrypsin (AAT), for which the Activity (% inhibition) stood at 77 % inhibition in the series with Cathepsin D; 68 % inhibition in the series with Cathepsin G; 100 % inhibition with Chymotrypsin; 0 % inhibition with MMP-7; 49 % inhibition with Plasmin; 94 % inhibition in the series with Trypsin. The molecule further returned an Activity (% inhibition) in series [1] of 64 % inhibition.
For “p54 protein (glycoprotein of about 54 kDa isolated from shark cartilage, serine protease inhibitor)”, the Activity (% inhibition) with Cathepsin D was found to be 0 % inhibition; with Cathepsin G, 0 % inhibition; in the series with Chymotrypsin it was 53 % inhibition; with MMP-2, 0 % inhibition; with MMP-7 it was 0 % inhibition; with Papaine, 8 % inhibition. In addition, the Activity (% inhibition) with Plasmin was 49 % inhibition; in the series with Thrombin it was 0 % inhibition; in the series with Trypsin it was 30 % inhibition; in series [2], 42 % inhibition; in series [1], 84 % inhibition.

B1: human leukocyte elastase (HLE) (protein)
chain: IVGGRRARPHAWPFMVSLQLRGGHFCGATLIAPNFVMSAAHCVANVNVRAVRVVLGAHNLSRREPTRQVFAVQRIFENGYDPVNLLNDIVILQLNGSATINANVQVAQLPAQGRRLGNGVQCLAMGWGLLGRNRGIASVLQELNVTVVTSLCRRSNVCTLVRGRQAGVCFGDSGSPLVCNGLIHGIASFVRGGCASGLYPDAFAPVAQFVNWIDSIIQ
B1: in [3], the “elastase assay (fluorescent elastin substrate)” value is “The inhibition of elastase by the p54 protein was also validated with a human leukocyte elastase”.
